The target in assay [1] is T1, 人TIGIT (full length, on cells) (human, UniProt Q495A1 22-244).
T1 construct: whole, on cells; also called human TIGIT; hTIGIT
T1 sequence (looked up): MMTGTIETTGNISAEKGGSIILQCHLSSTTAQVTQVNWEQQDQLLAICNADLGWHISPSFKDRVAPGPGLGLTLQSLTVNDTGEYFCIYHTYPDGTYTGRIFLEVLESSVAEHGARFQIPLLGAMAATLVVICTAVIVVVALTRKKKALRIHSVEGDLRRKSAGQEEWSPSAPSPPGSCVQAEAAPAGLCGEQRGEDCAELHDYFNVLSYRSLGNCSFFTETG
Briefly: flow cytometry affinity on CHOK1 cells over-expressing human TIGIT, quantitative beads. In general terms: A flow cytometer gives signals particle by particle.

The target of assay [2] is T1, 人TIGIT (full length, on cells). Briefly: flow cytometry competition on 293F cells expressing human TIGIT; competitor CD155.ECD-mFc at 2 μg/mL.
Assay [3] has as its target T2, W364-hPro1.ECD.His (human, UniProt Q495A1 22-141).
T2 construct: extracellular domain; Analyte in the SPR assay; 20 kDa used for molar concentration; also called W364-hPro1.ECD.his (Sino); 人TIGIT胞外结构域
T2 sequence (looked up): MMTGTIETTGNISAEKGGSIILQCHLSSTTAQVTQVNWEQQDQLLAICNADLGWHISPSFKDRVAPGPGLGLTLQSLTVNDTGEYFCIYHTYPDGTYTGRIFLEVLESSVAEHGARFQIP
Briefly: SPR (Biacore 8K), antibody captured by anti-human IgG Fc, TIGIT ECD as analyte, 1:1 model.

Assay [4] addresses T1, 人TIGIT (full length, on cells). Briefly: flow cytometry on 293F cells expressing human TIGIT.
The target of assay [5] is T3, 小鼠TIGIT (full length, on cells) (mouse, UniProt P86176 29-249).
T3 construct: whole, on cells; also called mouse TIGIT; W364-FlpinCHO.mpro1.FL
T3 sequence (looked up): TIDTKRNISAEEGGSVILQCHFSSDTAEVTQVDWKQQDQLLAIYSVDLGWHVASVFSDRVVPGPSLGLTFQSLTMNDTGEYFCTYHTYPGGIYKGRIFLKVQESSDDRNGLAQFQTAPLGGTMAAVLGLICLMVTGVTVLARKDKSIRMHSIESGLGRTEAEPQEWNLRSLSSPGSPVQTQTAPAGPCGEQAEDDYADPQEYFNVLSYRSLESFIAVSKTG
Briefly: flow cytometry on Flp-In CHO cells expressing mouse TIGIT.

The target in assay [6] is T4, 食蟹猴TIGIT (full length, on cells) (cynomolgus monkey, UniProt A0A7N9I9V4 89-312).
T4 construct: whole, on cells; also called cynomolgus TIGIT; W364-FlpinCHO.cynopro1.FL
Briefly: flow cytometry on Flp-In CHO cells expressing cynomolgus TIGIT.

Assay [7] deals with T1, 人TIGIT (full length, on cells). Briefly: cell-based or functional assay.

Data on 1 molecule can be found in patent CN114641502A (SHANGHAI YINGMING BIOTECHNOLOGY CO LTD, dated 2022).

T4 sequence (A0A7N9I9V4 entry or part of it): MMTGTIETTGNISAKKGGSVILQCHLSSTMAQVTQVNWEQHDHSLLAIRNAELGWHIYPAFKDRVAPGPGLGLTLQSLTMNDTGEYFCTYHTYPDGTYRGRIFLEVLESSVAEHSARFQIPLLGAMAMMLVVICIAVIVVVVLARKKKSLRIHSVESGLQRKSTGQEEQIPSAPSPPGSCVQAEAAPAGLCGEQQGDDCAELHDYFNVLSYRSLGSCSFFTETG

B1: W3645-2.131.4-hIgG1L3 (antibody, V domains shown)
VH: QLQLQESGPGLVKPSETLSLTCAVSGGSITSSSYYWGWIRQPPGKGLEWIGSIFFSGITYYNPSLKSRVTVSVDTSKNQFSLKLSSVTAADTAIYYCARRGLGGILASGYFDYWGQGTLVTVSS
VL: QSALTQPASVSGSPGQSITISCTGTSNDVGGYNYVSWYQQHPGKAPRLLIFDVSNRRTGISNRFSGSKSGITASLTISGLQAEDEADYYCSSYTSISTLVVFGGGTKLTVL
notes: Fully human (OMT rat derived), human IgG1; also called WBP3645先导抗体; WBP3645最终先导抗体
The Kd is the equilibrium constant for the complex coming apart. A low value points to tighter binding. By IC50 is commonly meant the concentration at which inhibition is half-maximal. High values mean weaker potency, low ones greater potency. Usually EC50 stands for the midpoint of the concentration-response curve. Lower therefore signals greater potency. On to B1, for which the figures for the Kd in assay [1] and in assay [3] were 27 pM and 750 pM, respectively. Moreover, the IC50 in assay [2] is 140 pM. For the same molecule, the EC50 in assay [4] worked out at 170 pM; in assay [5] it was 140 pM; in assay [6], 50 pM. For the same molecule, the “ADCC EC50 (LDH release, PBMC effectors)” value in assay [7] was 1.9 pM. Also, the “NFAT-荧光素酶报告基因 EC50” value in assay [7] is 920 pM.
